This passage reports ECL signal results from US20120316071A1 (published 2012).

Numbering of substitutions follows the chain as printed. In names and notes the source's numbering stands.

Assay [1] addresses T1, rHuman ErbB2/Fc Chimera, CF (R&D Systems Cat#1129-ER) (human, UniProt P04626 23-652).
T1 construct: Bought recombinant protein; also called human epidermal growth factor 2 receptor; Fc part of the bought chimera not given
The experiment in a line: ECL multispot (MSD) assay, antigen spotted on plate; blank spot of this row 327.

Assay [2] concerns the target T2, rHuman EGF R/Fc Chimera, CF (R&D Systems Cat#344-ER) (human, UniProt P00533 25-645).
T2 construct: Bought recombinant protein; also called epidermal growth factor receptor; Fc part of the bought chimera not given
Described as above.

Assay [3] has as its target T3, rHuman HGF R/c-MET/Fc Chimera, CF (R&D Systems Cat#358-MT/CF) (human, UniProt P08581 25-932).
T3 construct: Bought recombinant protein; also called HGF R/Fc; hepatocyte growth factor receptor; Fc part of the bought chimera not given
Described as above.

Assay [4] concerns the target T4, rHuman Notch-1/Fc Chimera, CF (R&D Systems Cat#3647-TK) (human, UniProt P46531 19-526).
T4 construct: Bought recombinant protein; Fc part of the bought chimera not given
The assay is described as above.

In assay [5] the target is T5, rHuman CD44/Fc Chimera, CF (R&D Systems Cat#3660-CD) (human, UniProt P16070 21-220).
T5 construct: Bought recombinant protein; Fc part of the bought chimera not given
The description is as above.

Assay [6] concerns the target T6, rHuman IGF-1 sR, (IGF-1 sR), CF (R&D Systems Cat#391-GR) (human, UniProt P08069 31-932).
T6 construct: Bought recombinant soluble receptor; also called insulin-like growth factor-1 soluble receptor
The description is as above.

Assay [7] has as its target T7, rHuman P-Cadherin/Fc Chimera, CF (R&D Systems Cat#861-PC) (human, UniProt P22223 108-654).
T7 construct: Bought recombinant protein; Fc part of the bought chimera not given
The assay is described as above.

In assay [8] the target is T8, rHuman Erythropoietin R/Fc Chimera, CF (R&D Systems Cat#963-ER) (human, UniProt P19235 25-250).
T8 construct: Bought recombinant protein; also called EPO R; EPO R/Fc; Fc part of the bought chimera not given
T8 sequence (looked up): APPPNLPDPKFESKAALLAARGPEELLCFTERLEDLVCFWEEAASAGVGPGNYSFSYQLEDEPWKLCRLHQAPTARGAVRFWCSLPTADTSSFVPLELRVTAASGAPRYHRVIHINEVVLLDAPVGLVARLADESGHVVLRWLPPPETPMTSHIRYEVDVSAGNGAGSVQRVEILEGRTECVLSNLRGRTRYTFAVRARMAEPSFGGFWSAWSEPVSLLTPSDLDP
The description is as above.

Assay [9] addresses T9, Recombinant Human DLL4 (R&D Systems Cat#1506-D4/CF) (human, UniProt Q9NR61 27-524).
T9 construct: Bought recombinant protein; also called delta-like protein 4; rHuman DLL4
The description is as above.

Assay [10] deals with T1, rHuman ErbB2/Fc Chimera, CF (R&D …). The experiment in a line: ECL multispot (MSD) assay, antigen spotted on plate; blank spot of this row 511.
Assay [11] has as its target T2, rHuman EGF R/Fc Chimera, CF (R&D …). The description is as above.
The target of assay [12] is T3, rHuman HGF R/c-MET/Fc Chimera, CF (R&D …). The assay is described as above.
Assay [13] addresses T4, rHuman Notch-1/Fc Chimera, CF (R&D …). Described as above.
Assay [14] deals with T5, rHuman CD44/Fc Chimera, CF (R&D Systems …). The assay is described as above.
Assay [15] deals with T6, rHuman IGF-1 sR, (IGF-1 sR), CF (R&D …). The description is as above.
Assay [16] concerns the target T7, rHuman P-Cadherin/Fc Chimera, CF (R&D …). Described as above.
The target in assay [17] is T8, rHuman Erythropoietin R/Fc Chimera, CF …. Described as above.
The target of assay [18] is T9, Recombinant Human DLL4 (R&D Systems …). The assay is described as above.
The target of assay [19] is T1, rHuman ErbB2/Fc Chimera, CF (R&D …). In words: ECL multispot (MSD) assay, antigen spotted on plate; blank spot of this row 294.
The target in assay [20] is T2, rHuman EGF R/Fc Chimera, CF (R&D …). The description is as above.
In assay [21] the target is T3, rHuman HGF R/c-MET/Fc Chimera, CF (R&D …). The description is as above.
Assay [22] deals with T4, rHuman Notch-1/Fc Chimera, CF (R&D …). The assay is described as above.
Assay [23] addresses T5, rHuman CD44/Fc Chimera, CF (R&D Systems …). Described as above.
In assay [24] the target is T6, rHuman IGF-1 sR, (IGF-1 sR), CF (R&D …). The assay is described as above.
The target of assay [25] is T7, rHuman P-Cadherin/Fc Chimera, CF (R&D …). The description is as above.
Assay [26] has as its target T8, rHuman Erythropoietin R/Fc Chimera, CF …. The assay is described as above.
In assay [27] the target is T9, Recombinant Human DLL4 (R&D Systems …). The description is as above.
Assay [28] concerns the target T1, rHuman ErbB2/Fc Chimera, CF (R&D …). The experiment in a line: ECL multispot (MSD) assay, antigen spotted on plate; blank spot of this row 332.
Assay [29] concerns the target T2, rHuman EGF R/Fc Chimera, CF (R&D …). The description is as above.
The target in assay [30] is T3, rHuman HGF R/c-MET/Fc Chimera, CF (R&D …). The description is as above.
The target in assay [31] is T4, rHuman Notch-1/Fc Chimera, CF (R&D …). Described as above.
The target of assay [32] is T5, rHuman CD44/Fc Chimera, CF (R&D Systems …). Described as above.
In assay [33] the target is T6, rHuman IGF-1 sR, (IGF-1 sR), CF (R&D …). The description is as above.
The target in assay [34] is T7, rHuman P-Cadherin/Fc Chimera, CF (R&D …). The assay is described as above.
The target of assay [35] is T8, rHuman Erythropoietin R/Fc Chimera, CF …. Described as above.
Assay [36] has as its target T9, Recombinant Human DLL4 (R&D Systems …). The description is as above.

T3 sequence (P08581 25-932, change not shown): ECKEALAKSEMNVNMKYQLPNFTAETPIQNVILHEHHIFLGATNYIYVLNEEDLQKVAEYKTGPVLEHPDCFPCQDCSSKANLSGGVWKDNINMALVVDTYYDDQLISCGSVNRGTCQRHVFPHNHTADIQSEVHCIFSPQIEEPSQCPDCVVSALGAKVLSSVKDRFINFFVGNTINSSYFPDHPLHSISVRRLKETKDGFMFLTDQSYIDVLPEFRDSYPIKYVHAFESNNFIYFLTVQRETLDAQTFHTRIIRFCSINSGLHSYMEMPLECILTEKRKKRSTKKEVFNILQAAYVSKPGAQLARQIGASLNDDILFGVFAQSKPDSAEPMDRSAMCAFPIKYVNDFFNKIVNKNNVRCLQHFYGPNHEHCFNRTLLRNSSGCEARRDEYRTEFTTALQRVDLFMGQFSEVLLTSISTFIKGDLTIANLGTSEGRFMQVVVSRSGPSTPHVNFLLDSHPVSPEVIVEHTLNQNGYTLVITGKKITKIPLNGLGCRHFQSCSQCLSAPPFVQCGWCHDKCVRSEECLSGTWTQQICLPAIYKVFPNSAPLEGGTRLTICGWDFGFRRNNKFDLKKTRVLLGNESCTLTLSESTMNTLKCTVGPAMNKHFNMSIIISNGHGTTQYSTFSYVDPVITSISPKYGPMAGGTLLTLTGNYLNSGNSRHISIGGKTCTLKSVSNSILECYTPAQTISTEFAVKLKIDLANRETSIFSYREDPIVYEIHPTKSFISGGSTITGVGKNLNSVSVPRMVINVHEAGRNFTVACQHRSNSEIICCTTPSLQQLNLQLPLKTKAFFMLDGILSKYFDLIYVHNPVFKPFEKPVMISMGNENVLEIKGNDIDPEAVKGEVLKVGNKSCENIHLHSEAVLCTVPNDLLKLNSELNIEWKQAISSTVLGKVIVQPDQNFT

B1: Fab VH1-46_IGHD6-6*01_IGHJ1*01 S102A/S103P/S104F/H111F (APFF) & L6_IGKJ1*01 S30Q (Fab, V domains shown)
VH: QVQLVQSGAEVKKPGASVKVSCKASGYTFTSYYMHWVRQAPGQGLEWMGIINPSGGSTSYAQKFQGRVTMTRDTSTSTVYMELSSLRSEDTAVYYCAREEYAPFSAEYFQFWGQGTLVTVSS
VL: EIVLTQSPATLSLSPGERATLSCRASQSVQSYLAWYQQKPGQAPRLLIYDASNRATGIPARFSGSGSGTDFTLTISSLEPEDFAVYYCQQRSNWPPWTFGQGTKVEIKR
notes: Fab made in E. coli: VH cloned into Plasmid A (CH1, His6 and Flag tags), kappa VL into Plasmid C (kappa CL); also called APFF / S30Q
Take B1: the ECL signal amounted to 340 in assay [1]; 381 in assay [2]; 344 in [3]; 326 in assay [4]; 411 in [5]; 354 in [6]. The ECL signal in [7] came out at 393; in assay [8] it was 376; in assay [9], 197000.

B2: Fab VH1-46_IGHD6-6*01_IGHJ1*01 S102A/S103P/S104F/H111F (APFF) & L6_IGKJ1*01 S31K (Fab, V domains shown)
VH: B1 VH
VL: B1 VL with Q30S, S31K
notes: Fab made in E. coli: VH cloned into Plasmid A (CH1, His6 and Flag tags), kappa VL into Plasmid C (kappa CL); also called APFF / S31K
For the molecule B2, the ECL signal in assay [10] came out at 262; in assay [11], 355; in [12], 221; in assay [13], 334; in [14], 370; in assay [15], 505. In addition, the ECL signal amounted to 471 in assay [16], 522 in assay [17] and 179000 in assay [18].

B3: Fab VH1-46_IGHD6-6*01_IGHJ1*01 S102A/S103P/S104F/H111F (APFF) & L6_IGKJ1*01 S31N (Fab, V domains shown)
VH: B1 VH
VL: B1 VL with Q30S, S31N
notes: Fab made in E. coli: VH cloned into Plasmid A (CH1, His6 and Flag tags), kappa VL into Plasmid C (kappa CL); also called APFF / S31N
B3: the ECL signal in assay [19] came out at 197; in [20], 246; in assay [21], 300; in [22], 267; in assay [23] it was 384; in assay [24], 379. The figures for the ECL signal in assay [25], in [26] and in [27] were 342, 363 and 178000, respectively.

B4: Fab VH1-46_IGHD6-6*01_IGHJ1*01 S102A/S103P/S104F/H111F (APFF) & L6_IGKJ1*01 S31T (Fab, V domains shown)
VH: B1 VH
VL: B1 VL with Q30S, S31T
notes: Fab made in E. coli: VH cloned into Plasmid A (CH1, His6 and Flag tags), kappa VL into Plasmid C (kappa CL); also called APFF / S31T
Regarding B4, the ECL signal in [28] amounted to 285; in [29] it was 351; in assay [30] it was 432; in [31], 261; in assay [32] it was 384; in assay [33], 303. Moreover, the ECL signal in assay [34] is 332; in assay [35] it was 423; in assay [36] it was 191000.
